Assay results reported in patent US8236764.

System: Human FV isolated from plasma
Sequence (chain, as listed by the source): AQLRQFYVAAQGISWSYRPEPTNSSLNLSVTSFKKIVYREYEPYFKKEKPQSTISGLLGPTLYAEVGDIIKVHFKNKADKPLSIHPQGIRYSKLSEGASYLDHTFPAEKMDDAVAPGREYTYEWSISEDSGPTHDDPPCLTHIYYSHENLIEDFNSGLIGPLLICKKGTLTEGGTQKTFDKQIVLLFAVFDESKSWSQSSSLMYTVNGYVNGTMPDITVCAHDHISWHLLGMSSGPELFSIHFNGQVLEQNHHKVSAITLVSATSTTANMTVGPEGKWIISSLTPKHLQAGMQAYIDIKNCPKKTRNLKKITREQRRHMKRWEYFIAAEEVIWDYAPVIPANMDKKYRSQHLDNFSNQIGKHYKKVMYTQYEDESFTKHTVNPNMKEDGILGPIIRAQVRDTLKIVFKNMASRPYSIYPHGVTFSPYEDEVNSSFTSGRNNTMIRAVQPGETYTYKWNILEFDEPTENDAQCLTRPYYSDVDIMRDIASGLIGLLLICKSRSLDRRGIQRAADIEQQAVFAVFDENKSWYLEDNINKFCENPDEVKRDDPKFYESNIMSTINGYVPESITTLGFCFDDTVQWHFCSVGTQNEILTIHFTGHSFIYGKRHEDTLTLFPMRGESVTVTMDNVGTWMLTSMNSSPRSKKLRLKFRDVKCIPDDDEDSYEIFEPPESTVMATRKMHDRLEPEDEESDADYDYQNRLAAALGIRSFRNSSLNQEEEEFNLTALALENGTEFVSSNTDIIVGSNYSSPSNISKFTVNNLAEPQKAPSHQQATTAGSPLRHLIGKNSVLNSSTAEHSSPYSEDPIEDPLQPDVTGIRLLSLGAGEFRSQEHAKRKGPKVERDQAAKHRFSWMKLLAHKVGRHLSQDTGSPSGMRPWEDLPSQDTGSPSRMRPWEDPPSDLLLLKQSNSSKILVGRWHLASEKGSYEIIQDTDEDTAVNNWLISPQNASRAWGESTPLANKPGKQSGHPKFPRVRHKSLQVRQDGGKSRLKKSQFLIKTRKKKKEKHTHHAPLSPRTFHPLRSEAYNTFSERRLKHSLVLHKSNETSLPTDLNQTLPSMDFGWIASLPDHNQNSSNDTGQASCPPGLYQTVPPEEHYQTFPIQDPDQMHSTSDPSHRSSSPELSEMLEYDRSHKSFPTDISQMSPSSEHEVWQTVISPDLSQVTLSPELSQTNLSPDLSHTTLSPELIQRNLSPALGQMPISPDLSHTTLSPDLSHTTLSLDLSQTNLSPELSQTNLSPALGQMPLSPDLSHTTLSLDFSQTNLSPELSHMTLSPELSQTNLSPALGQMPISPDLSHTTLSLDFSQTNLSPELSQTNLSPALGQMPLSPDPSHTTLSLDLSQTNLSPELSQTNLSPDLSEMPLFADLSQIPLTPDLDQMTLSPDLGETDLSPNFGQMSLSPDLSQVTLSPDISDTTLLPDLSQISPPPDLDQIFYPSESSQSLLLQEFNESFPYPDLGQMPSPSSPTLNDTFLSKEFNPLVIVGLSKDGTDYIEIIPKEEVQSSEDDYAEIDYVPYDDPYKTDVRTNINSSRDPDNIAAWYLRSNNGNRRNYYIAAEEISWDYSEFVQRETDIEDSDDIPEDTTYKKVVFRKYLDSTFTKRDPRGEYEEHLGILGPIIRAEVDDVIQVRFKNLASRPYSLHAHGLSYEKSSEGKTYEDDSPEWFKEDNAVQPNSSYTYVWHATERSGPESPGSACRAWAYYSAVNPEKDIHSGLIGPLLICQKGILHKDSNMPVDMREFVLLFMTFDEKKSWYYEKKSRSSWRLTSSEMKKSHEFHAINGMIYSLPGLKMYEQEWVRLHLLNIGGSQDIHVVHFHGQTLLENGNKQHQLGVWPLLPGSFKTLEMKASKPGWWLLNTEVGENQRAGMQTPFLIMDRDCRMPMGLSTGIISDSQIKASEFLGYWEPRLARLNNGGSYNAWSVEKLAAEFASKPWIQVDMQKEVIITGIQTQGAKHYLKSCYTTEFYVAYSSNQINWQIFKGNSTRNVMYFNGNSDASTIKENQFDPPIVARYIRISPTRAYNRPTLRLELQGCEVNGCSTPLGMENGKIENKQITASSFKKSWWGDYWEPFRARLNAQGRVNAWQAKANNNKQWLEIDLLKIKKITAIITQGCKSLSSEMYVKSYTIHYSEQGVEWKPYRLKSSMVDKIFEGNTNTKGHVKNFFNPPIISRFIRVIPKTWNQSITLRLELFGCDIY

Substance	activation of FV (cofactor activity by PT-based assay using FV-deficient plasma; cleavage by SDS-PAGE)
human thrombin	murine thrombin activates human FV in a similar fashion to human thrombin
murine thrombin	murine thrombin activates human FV in a similar fashion to human thrombin
